Results: patent US20040143098

Test system: DBF1 (Zea mays)
Assay: cell_activity
Conditions: maize callus, GUS reporter; nearly 3-fold with ABA

DBF1 (Zea mays), sequence (chain, as listed by the source): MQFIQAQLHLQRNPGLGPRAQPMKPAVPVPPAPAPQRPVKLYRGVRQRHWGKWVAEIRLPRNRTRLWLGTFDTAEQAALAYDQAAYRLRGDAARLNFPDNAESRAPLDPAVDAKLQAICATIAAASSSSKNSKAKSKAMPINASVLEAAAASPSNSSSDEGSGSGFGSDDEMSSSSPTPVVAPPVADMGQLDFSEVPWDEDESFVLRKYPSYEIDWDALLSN

Substance: rab17 promoter -350/+30
- activity: 2 fold
